Literature values, collected in PMC7640956.

Target: Spike RBD (Severe acute respiratory syndrome coronavirus 2) (UniProt P0DTC2)

For “ACE2-derived 23-mer peptide (from UniProt Q9BYF1)”, the Kd is given as 47 nM.
